Data from US9090882B2, “Compositions and methods for enhanced amino acid levels in plants conferred by lysine and/or threonine feedback insensitive aspartate kinase proteins” (priority 2008, dated 2015).
Positions count from the first letter of the chain named. Names and notes keep the numbering of the source. Like-named read-outs stand apart in the source and are kept apart here.

How the values were obtained:
[1] = test system: E. coli lysC aspartate kinase; conditions: known from the literature; cited from earlier work
plants = conditions: expression in plants; Karchi et al. 1993, Galili et al. EP 0485970; cited from earlier work
[2] = test system: X. bovienii aspartate kinase; assay: Aspartate kinase enzyme assays and kinetic studies (colorimetric hydroxamate / coupled assay) with purified recombinant His-tagged AK; type: biochemical, Xenorhabdus bovienii; conditions: for Vmax Asp / Km: purified enzyme
Procedure: The chimeric plasmids containing AK or the desired mutants were transformed into E. coli BL21 (DE3) cells and transformants were selected on LB (Luria-Bertani) medium containing kanamycin (50 μg/mL). For induction of gene expression, transformants selected from single colonies were grown in 100 mL liquid LB supplemented with ampicillin or kanamycin to approximately 0.6 A600, and 0.4 mM. Isopropyl-β-thiogalactopyranoside (IPTG) (Gold Biotechnologies, St. Louis, Mo.) was added, followed by 15 hours incubation at 21° C. and 220 rpm shaking. Cells were harvested by 30 min centrifugation at 7,000×g and washed once with 20 mM Tris-HCl, 150 mM NaCl, pH 7.4. Washed cell pellets were re-suspended in 50 mM K-phosphate buffer (pH7.4, Buffer A) containing 2 mM MgCl2, 50 mM NaCl, 100 units of benzonase (Novagen, San Diego, Calif.) and protease inhibitor cocktail tablets without EDTA (1 tablet/10 mL) (Boehringer Mannheim, Germany). Cells were broken by three passages through a chilled French press cell (SLM-Aminco Spectronic Instruments), operating at 20,000 psi. The lysate was centrifuged by an ultra-centrifuge for 1 hour at 100,000×g, at 4° C. The resulting supernatant was applied to nickel+-nitrilotriacetic acid (Ni+NTA) agarose column (His-Bind resin, Qiagen) and chromatographed according to the supplier's instructions. The column was washed with 3 bed volumes of Buffer A containing 20 mM imidiazole followed by elution with 300 mM imidazole. Enzymatically active fractions of the N-terminal His-tagged […] were pooled, dialyzed against Buffer A without benzonase, and stored in 15% glycerol solution at −80° C. for use in kinetic studies. The enzyme preparation was over 95% pure as judged by Coomassie Blue-stained SDS-PAGE.
Colorimetric Hydroxamate Method. The assay mixture (final volume, 0.8 mL) contained 100 Tris-HCl, pH8.0, 40 mM hydroxylamine-KOH, pH8.0, 25 mM ATP-KOH, pH8.0, 20 mM MgCl2, L-aspartic acid, and 150 mM KCl. The reaction was initiated by addition of AK enzyme, and carried out at 37° C. for 15-30 min. The reaction was terminated by addition of 400 μL acidified ferric chloride (0.37 M FeCl3, 20% TCA, and 0.72 M HCl) and followed by the centrifugation at top speed of microcentrifuge. The formed aspartyl-hydroxamate was determined by colorimetrically at 505 nm. The biosynthetic activity was calculated based on the standard curves of L-aspartyl-hydroxamate or ε505nm.
The assay couples the conversion of ATP to ADP to the oxidation of NADH using pyruvate kinase and lactate dehydrogenase at 30° C. NADH oxidation was monitored kinetically at 340 nm. (See Wampler D E, Westhead E W. (1968), BIOCHEMISTRY 7: 1661-1670.)
Kinetic parameters were determined by measuring product formation in 100 μL reaction mixtures containing various substrate concentrations ranging from 0 to 25 mM. Controls were included for every assay. Values for Km, Vmax, and Kcat were calculated from the rate of the product formation using Michaelis-Menten equations in conjunction with the curve fitting options in the Grafit 5.0 software (Erithacus software Ltd., Horley, UK) (Table 2).

[3] = substrate ATP, read-out: Km ATP
[4] = substrate Asp, read-out: Km Asp

B1: E. coli lysC gene product: recombinant E. coli lysC aspartate kinase, control sensitive to feedback inhibition by Lys (protein, UniProt P08660 2-449, looked up)
Lysine-sensitive …: SEIVVSKFGGTSVADFDAMNRSADIVLSDANVRLVVLSASAGITNLLVALAEGLEPGERFEKLDAIRNIQFAILERLRYPNVIREEIERLLENITVLAEAAALATSPALTDELVSHGELMSTLLFVEILRERDVQAQWFDVRKVMRTNDRFGRAEPDIAALAELAALQLLPRLNEGLVITQGFIGSENKGRTTTLGRGGSDYTAALLAEALHASRVDIWTDVPGIYTTDPRVVSAAKRIDEIAFAEAAEMATFGAKVLHPATLLPAVRSDIPVFVGSSKDPRAGGTLVCNKTENPPLFRALALRRNQTLLTLHSLNMLHSRGFLAEVFGILARHNISVDLITTSEVSVALTLDTTGSTSTGDTLLTQSLLMELSALCRVEVEEGLALVALIGNDLSKACGVGKEVFGVLEPFNIRMICYGASSHNLCFLVPGEDAEQVVQKLHSNLFE
[1]
  feedback inhibition by Lys: sensitive to feedback inhibition by Lys

B2: E. coli T352I lysC gene product: E. coli feedback-insensitive (T352I) lysC aspartate kinase, control (protein, listed as Escherichia coli)
chain: MSEIVVSKFGGTSVADFDAMNRSADIVLSDANVRLVVLSASAGITNLLVALAEGLEPGERFEKLDAIRNIQFAILERLRYPNVIREEIERLLENITVLAEAAALATSPALTDELVSHGELMSTLLFVEILRERDVQAQWFDVRKVMRTNDRFGRAEPDVAALAELAALQLLPRLNDGLVITQGFIGSENKGRTTTLGRGGSDYTAALLAEALHASRVDIWTDVPGIYTTDPRVVSAAKRIDEIAFAEAAEMATFGAKVLHPATLLPAVRSDIPVFVGSSKDPRAGGTLVCNKTENPPLFRALALRRNQTLLTLHSLNMLHSRGFLAEVFGILARHNISVDLITTSEVSVALTLDTTGSTSTGDTLLTQSLLMELSALCRVEVEEGLALVALIGNDLSKACGVGKEVFGVLEPFNIRMICYGASSHNLCFLVPGEDAEQVVQKLHFNLFE
[1]
  feedback inhibition by Lys: lysine-insensitive
plants
  increase in threonine content of the seed: 6-7%

B3: X. bovienii AK T359I: Xenorhabdus bovienii aspartate kinase variant, Thr 359 replaced with Ile (protein, listed as Xenorhabdus bovienii)
chain: MCAVSSTYPQYVVAKFGGTSVADFDAMNHCADIILANADVRVVVLSASAGVTNLLVALATGCDNDKRKKCLKQIRDIQYAIIDRLNDVNVICEEIDRLLENIEMLSEAASLATSEALTDELVSHGEVMSTLLFVELLRQRNVNAEWFDIRRVMRTNDHFGRAEPDSLQLHISAVELLQPRLNNTVVITQGFIGREEKGRTTTLGRGGSDYTAALLGEALNLQRVDIWTDVPGIYTTDPRVAPTAKRIDKIAFDEAAEMATFGAKILHPATLLPAIRCGIPVFVGSSKDPQAGGTLVCDKTENPPLFRALALRRKQTLLTLHSLKMLHARGFLAEVFTLLLRHNISVDLITTSEVSVALILDTTGSTSTNGSLLTNALLTELSTLCRVEVEEDLALVAIIGNELSQAKGLGKEIFGTLESFNIRMISYGASSHNVCLLVPGQDAESVIQKLHQNLFKV
[2]
  Vmax Asp: 0.26 μmoles · min^−1 · mg^−
[2]; [3]
  Km: 1820 µM
[2]; [4]
  Km: 2310 µM

B4: X. bovienii AK E257K: Xenorhabdus bovienii aspartate kinase variant, Glu 257 replaced with Lys (protein, listed as Xenorhabdus bovienii)
chain: B3 chain with E257K, I359T
[2]
  Vmax Asp: 0.20 μmoles · min^−1 · mg^−
[2]; [3]
  Km: 1890 µM
[2]; [4]
  Km: 3060 µM

B5: X. bovienii AK E257K/T359I: Xenorhabdus bovienii aspartate kinase double variant E257K/T359I (protein, listed as Xenorhabdus bovienii)
chain: B3 chain with E257K
[2]
  Vmax Asp: 0.24 μmoles · min^−1 · mg^−
[2]; [3]
  Km: 1620 µM
[2]; [4]
  Km: 3100 µM

B6: X. bovienii AK Wild Type: purified recombinant His-tagged wild-type Xenorhabdus bovienii aspartate kinase (encoded by SEQ ID NO: 6) (protein, listed as Xenorhabdus bovienii)
chain: B3 chain with I359T
modifications: His tag
[2]; inhibition of the purified enzyme by lysine
  IC50: 140 µM
[2]
  Vmax Asp: 0.29 μmoles · min^−1 · mg^−
[2]; [3]
  Km: 2560 µM
[2]; [4]
  Km: 2730 µM
